Consider 1 substance from paper PMC4862330.

The target in this test is F-actin (polymerized rabbit skeletal muscle G-actin) (rabbit) (UniProt P68135). Briefly: co-sedimentation.

As to “talin ABS2 6× mutant (K922E/Q923E/Q930E/K1500E/R1510E/K1522E) (from UniProt P26039 1-2541) (domain or fragment)”, the percent decrease in F-actin binding compared with wild type worked out at 60%.
